Results from the supplement of paper PMC7125110.
± gives the standard error. Fewer inactive variants are shown than the library holds.

B1: glmS ribozyme (parent)
chain: AUAAAAGCGCCAGAACUACAGAAAUGUAGUUGACGAGGAGGAGGUUUAUCGAAUUUUCGGCGGAUGCCUCCAAA

Variants of: B1
Assay: self-cleavage kobs at 10000 uM GlcN6P; higher = faster cleavage; RNA array
Settings: with glucosamine-6-phosphate
Procedure, shortened: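 Barcoded glmS ribozyme variants on sequenced MiSeq chips were transcribed in situ by E. coli RNA polymerase and tracked through a hybridised Cy3 probe at 37 °C. Glucosamine-6-phosphate (40 μM to 10 mM) in HEPES/KCl/Mg(OAc)2 buffer was flowed in, and tiles were imaged over ~14 h. Signals were normalised to baseline and to non-cleaving reference variants; per-tile medians were fit to one- or two-exponential decays to give kobs. kcat and KM came from weighted Michaelis–Menten fits across concentrations.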

Row | Variant | self-cleavage kobs at 10000 uM GlcN6P
1 | AUAAAAGCGCCAGAGCUACAGAAAUGUAGUUGGCGAGGAGGAGGUUUAUCGAAUUUUCUGCGGAUGCCUCCAAA | < 1e-05 s⁻¹
2 | AUAAAAGCGCCAGGACUACAGAAAUGUAACUGACGAGGGGGAGGUUUAUCGAAUUUUCGGCGGAUGCCUCCAAA | 4.63e-05 ± 1.6e-05 s⁻¹
3 | AUAAAAGCGCCAGCACUACAGAAAUGUAGUUGACGGGGAGGAGGUUUAUCUAAUUUUCGGCGGAUGCCUCCAAA | < 1e-05 s⁻¹
4 | AUAAAAGCGCCAGGACUACAGAAAUGUAGUUGACGAGGGGGAGCUUUAUCGAAUUUUCGGCGGAUGCUUCCAAA | 3.6e-05 ± 1.5e-05 s⁻¹
5 | AUAAAAGCGCCAUAACUACAGAAAUGUAGUUGACGAGGAGGGGGUUUAUUGAAUUUUCGGCGGAUGCCUCCAAA | < 1e-05 s⁻¹
6 | AUAAAAGCGCCAGCACUACAGAAAUGUAGUUGACCAGUAGGAGGUUUAUCGAAUUUUCGGUGUAAGCCUCGAAA | < 1e-05 s⁻¹
7 | AUAAAAGCGCCAUAACUACAGAAAUGUAGUUGACGAGGGGGAGGUUUAUCGAAUUUUCGGCGCAUGCCUCCAAA | < 1e-05 s⁻¹
8 | AUAAAAGCGCCAGGACUACAGAAAUGUAGUUGAAGAGAAGGAGGUUUAUCGAAUUUUCGGCGGAUGACUCCAAA | < 1e-05 s⁻¹
9 | AUAAAAGCGCCAUAACUACAGAAAUGUAGUUGACGAGCAGGAGGUUUAUCGAAUUUUCGGCAGAUGCCUCCAAA | < 1e-05 s⁻¹
10 | AUAAAAGCGCCAAAACUACAGAAAUGUAGUUCACGAGGAGGAGGUUUAUCGAAUUUUCGGCGGAUGCCGCCAAA | 5.76e-05 ± 2.1e-05 s⁻¹
11 | AUAAAAGCGCCAGACGUACAGAAAUGUAGUUGACGACGAGGAGGUUUAUCGAAUUUUAGGCGCAUGCCUCCAAA | < 1e-05 s⁻¹
12 | AUAAAAGCGCCAGCACUACAGAAAUGUAGAUGACGAGGAGGAGGUUGAUCGAAUUUUCGGCGGAUGCCUUCAAA | 8.66e-05 ± 1.4e-05 s⁻¹
13 | AUAAAAGCGCCAAAACUACAGAAAUGUAGUUGACGAGUAGGAGGUUUAUCGAAUUUUCGGCGGAUGCCUCCAAA | < 1e-05 s⁻¹
14 | AUAAAAGCGCCAGACCUACAGAAAUGUAGUUGACGAGGAGGGGGUUGAUCGAGUUUUCGGCGGAUGCCUCCAAA | 0.000696 ± 9.1e-05 s⁻¹
15 | AUAAAAGCGCCAGUACUACAGAAAUGUAGUUGACGAGGAGGAGGUGUAUCGAGUUUUCGGCGGAUGCCUCCAAA | 0.000633 ± 9.6e-05 s⁻¹
16 | AUAAAAGCGCCAUAAUUACAGAAAUGUAGUAGUCCAGGAGGAGGUUUAUCGAAUUUUCGGCGGAUGCCUCCAAA | < 1e-05 s⁻¹
17 | AUAAAAGCGCCAUAUCUACAGAAAUGUAGUUGACGAGGAGGAGGUUUAUCGAAUUUUCGGCAGAUGCAUGCAAA | < 1e-05 s⁻¹
18 | AUAAAAGCGCCAGUCCUACAGAAAUGUAGUUGACGAGGAGGAGGUUUAUCGAAUUUUCGGCGGAUGCUUCCAAA | 6.11e-05 ± 2e-05 s⁻¹
19 | AUAAAAGCGCCAGACCUACAGAAAUGUAGUAGACGAGCAGCAGGUUUAUCGAAUUUUCGGCGGAUGCCUCCAAA | < 1e-05 s⁻¹

Row | Variant | self-cleavage kobs at 10000 uM GlcN6P
20 | AUAAAAGCGCCAGACAUACAGAAAUGUAGUUGACGAUGAUGAGGUUUAUCGAAUUUUCGGCUGAUGCCUACAAA | < 1e-05 s⁻¹
21 | AUAAAAGCGCCAGCACUACAGAAAUGUAGUUGACGAGGAGGAGGUUUAUCGAAUUUACGGCGGAUGACUCCAAA | 3.08e-05 ± 1.4e-05 s⁻¹
22 | AUAAAAGCGCCAGUACUACAGAAAUGUAGUUGACGAGGAGGAGGGUUAUCGAAUUUUCGGUGGAUGCCUCCAAA | < 1e-05 s⁻¹
23 | AUAAAAGCGCCAGCACUACAGAAAUGUAGUUGACGAGGAGGAGAAUUAUCGAAUUUUCGGCGGAUGCCUCCAAA | 7.22e-05 ± 2.3e-05 s⁻¹
24 | AUAAAAGCGCCACAACUACAGAAAUGUAGUUGACGAGGAGGAGGUUUAUCGAAUUGUCGGCGGGUGACUCCAAA | 3.32e-05 ± 1.4e-05 s⁻¹
25 | AUAAAAGCGCCAGGACUACAGAAAUGUAGUUGAGGAGGAGGAGUUUUAUCGCAUUUUAAGCGUAUGCCUCGAAA | < 1e-05 s⁻¹
26 | AUAAAAGCGCCAAAACUACAGAAAUGUAGUUGACGCGUAGGAGGUUUAUCGAAUUUUCGGCGGAUGCCUCCAAA | < 1e-05 s⁻¹
27 | AUAAAAGCGCCAGGACUACAGAAAUGUAGUUGACGACGAGGAGGAUUACCGAAUUUUCUGCGGAUGCCUCCAAA | < 1e-05 s⁻¹
28 | AUAAAAGCGCCAGGAAUACAGAAAUGUACUUGACGAGGAGGAGGUUUAUCGAGUUUUCGGCGGAUGCCUCCAAA | 0.000885 ± 0.00021 s⁻¹
29 | AUAAAAGCGCCAGGACUACAGAAAUGUAGUGGACGAGGAGGAGGUUUAUCGAAUUUUCGGCGGAUGUCUCCAAA | 0.00162 ± 0.00041 s⁻¹
30 | AUAAAAGCGCCAGCACUACAGAAAUGUAGUUGACGAGGAGGAGGUUUAUCGAAUUUUCGGCGGAGGCUUCCAAA | 0.000226 ± 4.7e-05 s⁻¹
31 | AUAAAAGCGCCAGUACUACAGAAAUGUAGUUUACGAGGAGGAGGUCUAUCGAAUUUUCGGCGGAUGCCUCCAAA | 4.16e-05 ± 1.4e-05 s⁻¹
32 | AUAAAAGCGCCAGCACUACAGAAAUGUAGUUGACGAGGAUGAGGUUUAUCGAAUUGUCGGCGGAUGCCUCCAAA | 0.00853 ± 0.0032 s⁻¹
33 | AUAAAAGCGCCACAACUACAGAAAUGUAGUUGACGGGGAGGAGGUUUAUCAAAUAUUCGGCGGAUGCCUCCAAA | < 1e-05 s⁻¹
34 | AUAAAAGCGCCAGCACUACAGAAAUGUAGUUGACGAGGAGGAGGUUUAUCGAAUAUUCGGCGGAUGCCUCUAAA | 0.00514 ± 0.0013 s⁻¹
35 | AUAAAAGCGCCAGGACUACAGAAAUGUAGUUGACGAGGAGGAGGUUCAUCGAAUUGUCGGCGGAUGCCUCCAAA | 0.0112 ± 0.0019 s⁻¹
36 | AUAAAAGCGCCAGGGCUACAGAAAUGUAGUUGACGAGGAGGAGGUUCAUCGAAUAUUCGGCGGAUGCCUGCAAA | 0.000483 ± 0.00014 s⁻¹
37 | AUAAAAGCGCCAGCACUACAGAAAUGUAGUUGACGAGGAGGAGGUUUAUCGAAUUUUCCGCCGAUGCCUCCAAA | < 1e-05 s⁻¹
